Results published in patent publication US20190256836.

System: T1, recombinant Factor C protein from Tachypleus tridentatus produced in Leishmania tarentolae
T1 sequence: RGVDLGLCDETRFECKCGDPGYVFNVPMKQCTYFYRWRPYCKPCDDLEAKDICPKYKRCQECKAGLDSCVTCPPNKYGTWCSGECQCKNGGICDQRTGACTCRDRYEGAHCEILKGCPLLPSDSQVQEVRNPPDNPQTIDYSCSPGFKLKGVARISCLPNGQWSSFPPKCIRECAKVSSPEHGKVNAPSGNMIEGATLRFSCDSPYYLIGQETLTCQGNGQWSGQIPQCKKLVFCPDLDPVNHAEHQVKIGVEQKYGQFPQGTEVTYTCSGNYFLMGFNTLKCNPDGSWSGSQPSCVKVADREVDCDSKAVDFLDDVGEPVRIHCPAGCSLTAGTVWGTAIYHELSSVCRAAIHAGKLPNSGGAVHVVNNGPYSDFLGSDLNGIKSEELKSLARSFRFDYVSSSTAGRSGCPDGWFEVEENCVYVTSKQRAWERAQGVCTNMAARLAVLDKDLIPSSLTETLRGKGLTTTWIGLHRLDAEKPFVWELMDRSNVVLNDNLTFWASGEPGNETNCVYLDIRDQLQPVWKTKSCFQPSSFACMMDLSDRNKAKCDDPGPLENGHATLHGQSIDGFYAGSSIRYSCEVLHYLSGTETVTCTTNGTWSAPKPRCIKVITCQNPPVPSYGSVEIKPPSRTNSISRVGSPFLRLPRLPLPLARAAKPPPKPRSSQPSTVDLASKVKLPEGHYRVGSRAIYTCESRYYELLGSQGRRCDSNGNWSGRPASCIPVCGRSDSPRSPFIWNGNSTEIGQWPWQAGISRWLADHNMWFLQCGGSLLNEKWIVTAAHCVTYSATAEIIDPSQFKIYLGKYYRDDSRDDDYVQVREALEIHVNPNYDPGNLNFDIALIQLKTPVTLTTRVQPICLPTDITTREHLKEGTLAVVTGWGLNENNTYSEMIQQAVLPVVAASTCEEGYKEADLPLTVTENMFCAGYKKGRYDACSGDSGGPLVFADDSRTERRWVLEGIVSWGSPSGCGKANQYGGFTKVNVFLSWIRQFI
Settings: in U/mg

Question: For chymotrypsin, which specific activity of activated Factor C (hydrolysis of Boc-Val-Pro-Arg-AMC) (Units/mg protein) is on record?
Answer: 0.658
